Measurements from patent US20220125898A1, “PAR2 MODULATION AND METHODS THEREOF” (JANSSEN BIOTECH, INC., priority 2019, published 2022).

Legend:
[1] = target: PAR2 endogenously expressed in HEK293 cells (human) (UniProt P55085); assay: cell-based or functional assay
[2] = target: PAR2 with the signal peptide deleted (PAR2ΔSP) (human) (UniProt P55085); assay: cell-based or functional assay
[3] = target: Human PAR2 wild type, recombinantly expressed in HEK293 cells with par1 and par2 knocked-out (human) (UniProt P55085); assay: cell-based or functional assay
[4] = test system: HEK293 cells with par1 and par2 knocked-out; assay: FLIPR characterization of par1 and par2 knock-out HEK293 cells; assay type: cell-based, human
Source text: A PAR1, PAR2 knock-out HEK293 cell line was created by Applied StemCells (Milpitas, Calif.) using a CRISPR/Cas9 approach. Briefly, the coding region (nucleotide 374-643) of PAR1, which encodes the protein region transmembrane region 2 (TM2) to transmembrane region 3 (TM3) of PAR1, was deleted. Similarly, the coding region (281-627) of PAR2, which encodes the protein region TM2 to TM3 of PAR2, was deleted. Single cell clones were isolated. PCR analysis of the genomic DNA followed by DNA sequencing was used to confirm the deletion of the DNA fragments.
FLIPR-Tetra (Molecular Device, San Jose, Calif.) was used to monitor intracellular Ca^2+ mobilization in HEK293 cells, HEK293 cells with PAR1 and PAR2 knocked-out, and cells transiently transfected with various PAR2 expression constructs. Cells were grown in 96-well polyD-lysine coated black FLIPR plates (Corning) in DMEM supplemented with 10% FCS, 1 mM pyruvate, 20 mM HEPES, at 37° C. with 5% CO2. For transient transfection, cells were grown in 96-well polyD-lysine coated black FLIPR plates and transfected using FuGENE HD (Promega, Madison, Wis.) as the transfection reagent according to the manufacturer's instructions. […] Intracellular Ca^2+ mobilization stimulated by various concentrations of ligands (trypsin, or peptide ligand) was monitored by FLIPR-Tetra as described (Liu et al., Mol. Pharmacol. 88:911-25 (2015)). […]

EC50, FLIPR intracellular Ca2+ mobilization [1] | EC50, FLIPR intracellular Ca2+ mobilization [2] | EC50, FLIPR intracellular Ca2+ mobilization [3] | Substance | response of knock-out cells to ligand [4]
10 nM | 50 nM | 1.5 nM | Trypsin (sequencing grade) (enzyme) | –
– | – | – | thrombin | lack of response
